From paper PMC12724168, “Real-time simultaneous monitoring of multiple analytes in bacterial cultures” (Applied and Environmental Microbiology, 2025) come the findings set out here.

Data set [1] in a line: Fluorescence change of LAOBP-22C fluorophore conjugates upon addition of ligand. The conditions noted are these: LAOBP-22C mutant conjugates, ligand not given. It is filed as binding. The text has this:
(§1) Because of this, we decided to design and develop a biosensor for arginine, using the lysine/arginine/ornithine binding protein from Salmonella (LAOBP) ([52]). We carried out cysteine scanning by introducing four individual cysteine mutations at positions near the hinge region. The selection of cysteine positions was guided by the crystal structures of the apo and bound forms of the protein ([53]) (Fig. S1). Each of the four mutants was conjugated to six different fluorophores, and the fluorescence change upon the addition of ligand was characterized for each of the 24 protein-ligand conjugates. […] We determined the dissociation constants for all three ligands (arginine, lysine, and ornithine) using the LAOBP-22C acrylodan conjugate (Fig. 1F) and the coumarin conjugate (Fig. S2). With a large change in fluorescence and a dissociation constant of 1.5 µM for both arginine and lysine, we chose to use the LAOBP-22C acrylodan conjugate for subsequent experiments.
Fluorescence analysis of protein-fluorophore conjugates was carried out on a Jasco FP-8500 fluorometer. UV-clear, four-sided cuvettes containing 200–300 nM labeled protein in working buffer were used. The following parameters were used for each of the fluorophores: Acrylodan (excitation: 359 nm, emission: 440–550 nm), Coumarin (excitation: 390 nm, emission: 430–520 nm), IANBD (excitation: 460 nm, emission: 500–600 nm), Alexa488 (excitation: 490 nm, emission: 500–560 nm), TMR (excitation: 555 nm, emission: 570–620 nm), and Texas Red (excitation: 595 nm, emission: 600–660 nm). Titrations were carried out by adding increasing amounts of ligand while monitoring changes in emission at the maximum wavelength. Fluorescence values were volume adjusted, and Kd values were determined by fitting the titration data using Kaleidagraph according to the following equation: […]

Data set [2] in a line: Fluorescence titration of LAOBP-22C conjugates with arginine. It is filed as binding. The conditions noted are these: LAOBP-22C conjugate, ligand arginine.
Text: as §1
(§2) Fluorescence analysis of protein-fluorophore conjugates was carried out on a Jasco FP-8500 fluorometer. […] Fluorescence values were volume adjusted, and Kd values were determined by fitting the titration data using Kaleidagraph according to the following equation: […]
(§3) where F is the observed fluorescence at a given ligand concentration [L], Fo is the fluorescence in the absence of ligand, and Fmax is the fluorescence at saturation.

The nature of data set [3]: Fluorescence titration of LAOBP-22C conjugates with lysine. Type of data set: binding. The conditions noted are these: LAOBP-22C conjugate, ligand lysine.
Text: as §1, §2, §3

A short description of data set [4]: Fluorescence titration of LAOBP-22C conjugates with ornithine. Type of data set: binding. The settings on record: LAOBP-22C conjugate, ligand ornithine.
Text: as §1, §2, §3

Data set [5] concerns cultures of P. aeruginosa, S. aureus, E.coli, E. faecalis, and C. striatum. Briefly: Gel electrophoresis of biosensors after 24 h in bacterial cultures (stability). The conditions noted are these: 24 hours in culture, LB, supernatants. Here is the method: To determine if the observed changes in fluorescence were not simply the result of degradation of the protein sensors over the course of E. coli growth, glucose, individual ligands (arabinose, ribose, glutamate, arginine, or ornithine) were added to 24-hour-old cultures containing each corresponding PBP. Immediately after the addition of the respective analyte, fluorescence was measured again (Fig. 3F).
Figure S3: Gel electrophoresis analysis of the stability of the biosensors after incubation with different bacterial species in culture for 24 hours. Left gel: TnGBP, Right gel: LAOBP. A Bio-Rad gel imager was used to detect the fluorescently labeled biosensor in each sample. In each gel, the lanes are as follows: 1. MW standard, 2. Pure protein, 3. Pure protein in LB with no bacteria, 4 – 8: supernatants after 24 hours of cultures of P. aeruginosa, S. aureus-GBP, E.coli, E. faecalis, and C. striatum.

B1: LAOBP-22C Acrylodan (conjugate, UniProt P02911 23-260, looked up, variant A22C)
Lysine/arginine/ornithine-bind …: ALPQTVRIGTDTTYAPFSSKDCKGEFIGFDIDLGNEMCKRMQVKCTWVASDFDALIPSLKAKKIDAIISSLSITDKRQQEIAFSDKLYAADSRLIAAKGSPIQPTLESLKGKHVGVLQGSTQEAYANDNWRTKGVDVVAYANQDLIYSDLTAGRLDAALQDEVAASEGFLKQPAGKEYAFAGPSVKDKKYFGDGTGVGLRKDDTELKAAFDKALTELRQDGTYDKMAKKYFDFNVYGD
modifications: Acrylodan label
As for B1, the “% Change” value in data set [1] is recorded as −50%. Further, the values for the Kd in data set [2], in data set [3] and in data set [4] were 1.5 ± 0.1 µM, 1.5 ± 0.1 µM and 38.9 ± 1.8 µM, respectively. Further, the “stability of the biosensor in bacterial culture (gel electrophoresis)” value in data set [5] is on record as “two bands are visible”.

B2: LAOBP-22C IANBD (conjugate, UniProt P02911 23-260, looked up, variant A22C)
Lysine/arginine/ornithine-bind …: B1 Lysine/arginine/ornithine-bind …
modifications: IANBD label
For B2, in data set [1], the “% Change” value is recorded as -8%.

B3: LAOBP-22C TMR (conjugate, UniProt P02911 23-260, looked up, variant A22C)
Lysine/arginine/ornithine-bind …: B1 Lysine/arginine/ornithine-bind …
modifications: TMR label
For B3, the “% Change” value in data set [1] is recorded as −10%.

B4: LAOBP-22C Texas Red (conjugate, UniProt P02911 23-260, looked up, variant A22C)
Lysine/arginine/ornithine-bind …: B1 Lysine/arginine/ornithine-bind …
modifications: Texas Red label
B4: in data set [1], the “% Change” value is −22%.

B5: LAOBP-22C Alexa488 (conjugate, UniProt P02911 23-260, looked up, variant A22C)
Lysine/arginine/ornithine-bind …: B1 Lysine/arginine/ornithine-bind …
modifications: Alexa488 label
Consider B5, for which the “% Change” value in data set [1] is “+8%”.
